# Measured values published in the supplement of paper PMC10567573.
# B1: CCND1 (parent)
# chain: IRRAYPDANLLNDRVLRAMLKAEE
# Variants of: B1
# Experiment: protein stability index of a GFP-peptide fusion (GPS, HEK-293T) (PSI 1-6); higher = more stable
# Conditions: c terminus: a fixed tail appended
# 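Further: lentivirally expressed fusions sorted by FACS into six bins by GFP to DsRed ratio, PSI derived from sequencing read proportions per bin multiplied by bin number.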
row,Variant,protein stability index
1,IRRAYMDANLLNDRVLRAMLKAEE [P6M],2.99
2,IRRAYVDANLLNDRVLRAMLKAEE [P6V],3.38
3,IRRAYFDANLLNDRVLRAMLKAEE [P6F],2.4
4,IRRAYADANLLNDRVLRAMLKAEE [P6A],1.75
5,IRRAYEDANLLNDRVLRAMLKAEE [P6E],2.14
6,IRRAYGDANLLNDRVLRAMLKAEE [P6G],2.13
7,IRRAYLDANLLNDRVLRAMLKAEE [P6L],2.42
8,IRRAYYDANLLNDRVLRAMLKAEE [P6Y],1.63
9,IRRAYTDANLLNDRVLRAMLKAEE [P6T],1.88
10,IRRAYIDANLLNDRVLRAMLKAEE [P6I],2.21
11,IRRAYRDANLLNDRVLRAMLKAEE [P6R],2.35
12,IRRAYDDANLLNDRVLRAMLKAEE [P6D],1.43
13,IRRAYSDANLLNDRVLRAMLKAEE [P6S],3.19
14,IRRAYPDANQLNDRVLRAMLKAEE [L10Q],3.38
15,IRRAYPDANYLNDRVLRAMLKAEE [L10Y],3.34
16,IRRAYPDANWLNDRVLRAMLKAEE [L10W],2.02
17,IRRAYPDANSLNDRVLRAMLKAEE [L10S],2.14
18,IRRAYPDANPLNDRVLRAMLKAEE [L10P],2.63
19,IRRAYPDANDLNDRVLRAMLKAEE [L10D],3.97
20,IRRAYPDANFLNDRVLRAMLKAEE [L10F],2.52
21,IRRAYPDANHLNDRVLRAMLKAEE [L10H],2.94
22,IRRAYPDANRLNDRVLRAMLKAEE [L10R],3.08
23,IRRAYPDANILNDRVLRAMLKAEE [L10I],1.22
24,IRRAYPDANVLNDRVLRAMLKAEE [L10V],2.49

row,Variant,protein stability index
1,IRRAYPDANALNDRVLRAMLKAEE [L10A],2.48
2,IRRAYPDANTLNDRVLRAMLKAEE [L10T],3.13
3,IRRAYPDANKLNDRVLRAMLKAEE [L10K],3.23
4,IRRAYPDANNLNDRVLRAMLKAEE [L10N],3.58
5,IRRAYPDANLLNDRLLRAMLKAEE [V15L],1.9
6,IRRAYPDANLLNDRFLRAMLKAEE [V15F],2.41
7,IRRAYPDANLLNDRSLRAMLKAEE [V15S],3.27
8,IRRAYPDANLLNDRELRAMLKAEE [V15E],3.12
9,IRRAYPDANLLNDRPLRAMLKAEE [V15P],3.51
10,IRRAYPDANLLNDRQLRAMLKAEE [V15Q],4.11
11,IRRAYPDANLLNDRNLRAMLKAEE [V15N],3.25
12,IRRAYPDANLLNDRRLRAMLKAEE [V15R],3.57
13,IRRAYPDANLLNDRGLRAMLKAEE [V15G],3.37
14,IRRAYPDANLLNDRALRAMLKAEE [V15A],3.31
15,IRRAYPDANLLNDRCLRAMLKAEE [V15C],2.61
16,IRRAYPDANLLNDRTLRAMLKAEE [V15T],3.33
17,IRRAYPDANLLNDRWLRAMLKAEE [V15W],3.47
18,IRRAYPDANLLNDRILRAMLKAEE [V15I],1.99
19,IRRAYPDANLLNDRMLRAMLKAEE [V15M],1.9
20,IRRAYPDANLLNDRHLRAMLKAEE [V15H],4.36
21,IRRAYPDANLLNDRDLRAMLKAEE [V15D],3.5
22,IRRAEPDANLLNDRVLRAMLKAEE [Y5E],2.51
23,IRRAKPDANLLNDRVLRAMLKAEE [Y5K],3.3
24,IRRALPDANLLNDRVLRAMLKAEE [Y5L],3.07

row,Variant,protein stability index
1,IRRAWPDANLLNDRVLRAMLKAEE [Y5W],2.13
2,IRRAGPDANLLNDRVLRAMLKAEE [Y5G],2.14
3,IRRARPDANLLNDRVLRAMLKAEE [Y5R],2.53
4,IRRAAPDANLLNDRVLRAMLKAEE [Y5A],3.33
5,IRRANPDANLLNDRVLRAMLKAEE [Y5N],2.43
6,IRRAHPDANLLNDRVLRAMLKAEE [Y5H],2.02
7,IRRADPDANLLNDRVLRAMLKAEE [Y5D],1.54
8,IRRATPDANLLNDRVLRAMLKAEE [Y5T],3.49
9,IRRACPDANLLNDRVLRAMLKAEE [Y5C],2.9
10,IRRAPPDANLLNDRVLRAMLKAEE [Y5P],3.69
11,IRRAYPDADLLNDRVLRAMLKAEE [N9D],2.3
12,IRRAYPDAYLLNDRVLRAMLKAEE [N9Y],2.11
13,IRRAYPDAELLNDRVLRAMLKAEE [N9E],3.04
14,IRRAYPDAGLLNDRVLRAMLKAEE [N9G],2.34
15,IRRAYPDATLLNDRVLRAMLKAEE [N9T],2.63
16,IRRAYPDARLLNDRVLRAMLKAEE [N9R],2.06
17,IRRAYPDAVLLNDRVLRAMLKAEE [N9V],2.26
18,IRRAYPDAILLNDRVLRAMLKAEE [N9I],2.36
19,IRRAYPDAFLLNDRVLRAMLKAEE [N9F],1.71
20,IRRAYPDAALLNDRVLRAMLKAEE [N9A],2.34
21,IRRAYPDASLLNDRVLRAMLKAEE [N9S],2.44
22,IRRAYPDANLLGDRVLRAMLKAEE [N12G],3.05
23,IRRAYPDANLLADRVLRAMLKAEE [N12A],3.21
24,IRRAYPDANLLPDRVLRAMLKAEE [N12P],1.84

row,Variant,protein stability index
1,IRRAYPDANLLWDRVLRAMLKAEE [N12W],2.19
2,IRRAYPDANLLDDRVLRAMLKAEE [N12D],2.87
3,IRRAYPDANLLRDRVLRAMLKAEE [N12R],2.73
4,IRRAYPDANLLEDRVLRAMLKAEE [N12E],3.41
5,IRRAYPDANLLCDRVLRAMLKAEE [N12C],2.51
6,IRRAYPDANLLFDRVLRAMLKAEE [N12F],1.9
7,IRRAYPDANLLYDRVLRAMLKAEE [N12Y],2.52
8,IRRAYPDANLLSDRVLRAMLKAEE [N12S],2.11
9,IRRAYPDANLLHDRVLRAMLKAEE [N12H],2.5
10,IRRAYPDANLLKDRVLRAMLKAEE [N12K],2.15
11,IRRAYPDANLLQDRVLRAMLKAEE [N12Q],2.39
12,IRRYYPDANLLNDRVLRAMLKAEE [A4Y],2.68
13,IRRAYPDRNLLNDRVLRAMLKAEE [A8R],3.16
14,IRRAYPDYNLLNDRVLRAMLKAEE [A8Y],2.4
15,IRRAYPDCNLLNDRVLRAMLKAEE [A8C],2.78
16,IRRAYPDNNLLNDRVLRAMLKAEE [A8N],3.46
17,IRRAYPDLNLLNDRVLRAMLKAEE [A8L],2.04
18,IRRAYPDVNLLNDRVLRAMLKAEE [A8V],3.02
19,IRRAYPDFNLLNDRVLRAMLKAEE [A8F],2.54
20,IRRAYPDHNLLNDRVLRAMLKAEE [A8H],2.28
21,IRRAYPDTNLLNDRVLRAMLKAEE [A8T],2.61
22,IRRAYPDMNLLNDRVLRAMLKAEE [A8M],2.85
